T1: Abp1 SH3 (ABP1_YEAST), P15891
T1 chain: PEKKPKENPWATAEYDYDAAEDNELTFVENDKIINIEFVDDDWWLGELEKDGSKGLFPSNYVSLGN


Target: T1, Abp1 SH3 (ABP1_YEAST), P15891
Test: SPOT array

normalised SPOT signal, Boehringer light units (BLU); mean over the file's lines of this peptide	Binder
110	PLYDGNSITPPVKP [YMR016C 338-351]
98.6	PNSDRLQLLEPFKP [YJL200C 564-577]
46.6	QEQQNKAPEKPKP [YGL105W 194-206]
23.6	PSVVSSSESQPSKP [YML109W 615-628]
58.1	QEYGGQKPELSKP [YHL032C 439-451]
206	PYNYLQRPFIVKP [YML113W 199-211]
81	PTLEDHTPPEDKP [YHR001W-A 64-76]
920	PTSDRLQLLKPFKP [YLR304C 557-570]
698	PRIPRLVPQWEKP [YLR174W 115-127]
14100	PLKPKMLPIPSKP [YPL243W 529-541]
62.2	PKQTIHVLEQPDRP [YDR158W 295-308]
93.5	PVFVTDYPRLSKP [YCR024C 376-388]
6140	PTTLKRPPLSSRP [YDR389W 56-68]
32.3	PRQVAVDPKTGKP [YKR001C 550-562]
88	QEENKLEESVPTKP [YIL072W 279-292]
38700	PKPKVQIPGLNRP [YDR266C 579-591]
128	PTDIQLKNLFPLKP [YPL243W 519-532]
192	PPLIGSGPGSHKP [YLR176C 127-139]
1700	PVTMRVHPKNGKP [YLR304C 734-746]
3910	PRIPRLVPRWEKP [YDL066W 131-143]

normalised SPOT signal, Boehringer light units (BLU); mean over the file's lines of this peptide	Binder
5500	PKMISNRRPVPRRP [YPR091C 655-668]
0	QDYGSISPSNIRP [YER132C 1035-1047]
2670	PLPFELRSKLPTKP [YHL029C 305-318]
117	QAPSMGIPQQNRP [YOR181W 300-312]
200	PPLTKEGPTSKKP [YCR094W 11-23]
2140	PMVNQYSPTRGRP [YJL060W 83-95]
1630	PKTMAKIPVSVKP [YGL035C 180-192]
128	PQQLQQQPNGQRP [YPL204W 411-423]
790	PVFMAIKQHSPDKP [YGR271W 1358-1371]
234	PMVGLVDPDKLKP [YOR117W 130-142]
-0	PRETAAGPANIRP [YOL019W 423-435]
86.5	PSNDRSAPKNIKP [YNL139C 1426-1438]
37.3	PTAVFLRLISPTRP [YOR249C 37-50]
97.2	PKTSIIYANLPNRP [YMR047C 1028-1041]
36.2	PQYDEIHIPAPSKP [YER172C 458-471]
32.6	PKKRGRKPKDPSKP [YML065W 327-340]
117	PPPPPPPPPSSKP [YMR109W 1073-1085]
110000	PKRRAPPPVPKKP [YIR003W 384-396]
146	PRGAPGMPEMLKP [YJR016C 466-478]
383	PLDLVKNIKLPAKP [YDL019C 243-256]

normalised SPOT signal, Boehringer light units (BLU); mean over the file's lines of this peptide	Binder
479	PVSSRKAVEPPRKP [YDR464W 340-353]
165	QEAVNSSPSEFRP [YOR299W 396-408]
4090	PRMGHVFPLETRP [YPR118W 222-234]
0	PNNNGITPVEKKP [YJL123C 260-272]
94.4	PVIMWVPSMYPVKP [YCL008C 82-95]
46.8	PRDTIIGHGLPYKP [YLR224W 322-335]
0	QAHVQTNPQVPKP [YPR129W 112-124]
114	QEDPISNFLPPPKP [YBR108W 580-593]
41.4	QDFKSPLENDPNRP [YPL188W 113-126]
49.2	PTTSIGFPALEKP [YLL022C 355-367]
0	PQLHDYLPTLERP [YCR034W 17-29]
1040	PLVSSNKQSNPMRP [YER064C 414-427]
287	PQNRVQAPTAYKP [YBL013W 258-270]
67.5	QDKRNLRSNAPTKP [YLR263W 598-611]
127	PYTAKGAPIISKP [YOL061W 103-115]
183	PVPELDIKQGPVRP [YDL095W 15-28]
64.1	PNERIISFEFPERP [YER086W 492-505]
188	PPPQQAQSLQPLKP [YIR006C 205-218]
88.1	PRTYSKTYSTPKRP [YBR189W 5-18]

— publication PMC314469, “Protein Interaction Networks by Proteome Peptide Scanning” (PLoS Biology, 2004)
